Measured values reported in article PMC4414810.

Legend:
Experiment in all cases: fluorescence polarisation
[1] = molecular target: 5-FAM labeled HalA2 core peptide (Bacillus halodurans C-125)
[2] = molecular target: fluorescein-labeled HalA2 (Bacillus halodurans C-125)
[3] = molecular target: fluorescently-labeled, fully-modified HalA2 peptide (Bacillus halodurans C-125)
[4] = molecular target: HalM2 (haloduracin lanthipeptide synthetase) (Bacillus halodurans C-125)

Substance	Kd [1] [µM]	Kd [2] [µM]	Kd [3] [µM]	IC50 [4] [µM]	Ki [4] [µM]
HalCE2 (HalA2 leader peptide attached to the N-terminus of HalM2 through a (GS)15 linker) (enzyme)	85	–	–	–	–
HalM2 (haloduracin lanthipeptide synthetase) (enzyme)	–	1.9	10.4	–	–
unlabeled HalA2 leader peptide	–	–	–	5.6	5.5
unlabeled HalA2 peptide	–	–	–	1.2	1.2
